The target of assay [1] is T1, recombinant human VEGF165 (human, UniProt P15692-4 27-191).
T1 construct: also called hVEGF165; rhVEGF165
The experiment in a line: Biacore on VEGF165 (Example 5.5). Here is the method:
(§1) Samples are injected for 2 min and allowed to dissociate up to 20 min at a flow rate of 45 μI/min. In between sample injections, the chip surface is regenerated with 100 mM HCl. HBS-EP+(Hepes buffer pH7.4+EDTA) is used as running buffer. Binding curves are fitted using a Two State Reaction model by Biacore T100 Evaluation Software v2.0.1.

Assay [2] has as its target T1, recombinant human VEGF165. Description: VEGF165/VEGFR2 blocking AlphaScreen.
Assay [3] addresses VEGF. Description: cell-based or functional assay.
For assay [4], the target named is T1, recombinant human VEGF165. Description: SPR Biacore T100, hVEGF165 on chip, Two State Reaction model. Here is the method: as §1
(§2) ^{(a)}KD = kd1/kₐ₁ * (kd2/(kd2 + kₐ₂)) ^{(b)}Curves are fitted using a Two State Reaction model by Biacore T100 Evaluation Software v2.0.1
Target sequence in this assay (P15692 other isoform, or with tags, fused parts or gaps limits assumed): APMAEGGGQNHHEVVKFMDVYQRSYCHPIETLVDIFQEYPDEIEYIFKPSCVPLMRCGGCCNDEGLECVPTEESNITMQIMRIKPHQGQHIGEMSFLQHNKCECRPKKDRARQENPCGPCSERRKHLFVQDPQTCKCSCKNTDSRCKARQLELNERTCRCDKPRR

The target of assay [5] is T1, recombinant human VEGF165. The experiment in a line: SPR Biacore T100, Two State Reaction model; KD = kd1/ka1 * (kd2/(kd2 + ka2)). Here is the method:
as §1, §2
Target sequence in this assay (P15692 other isoform, or with tags, fused parts or gaps limits assumed): as above

Assay [6] has as its target T1, recombinant human VEGF165. The experiment in a line: ka1; SPR Biacore T100, hVEGF165 on chip, Two State Reaction model. Here is the method:
as §1, §2
Target sequence in this assay (P15692 other isoform, or with tags, fused parts or gaps limits assumed): as above

The target of assay [7] is T1, recombinant human VEGF165. The experiment in a line: VEGF/VEGFR2 competition AlphaScreen. Here is the method: (§3) Finally, streptavidin donor beads (20 μg/ml) are added and after 1 hour of incubation in the dark, fluorescence is measured on the Envision microplate reader.
Target sequence in this assay (P15692 other isoform, or with tags, fused parts or gaps limits assumed): as above
In assay [8] the target is T1, recombinant human VEGF165. The experiment in a line: VEGF165/hVEGFR1-Fc competition AlphaScreen. Here is the method: as §3
Target sequence in this assay (P15692 other isoform, or with tags, fused parts or gaps limits assumed): as above
Assay [9] concerns the target VEGF. Description: cell-based or functional assay. The source holds these as a separate data set.
Assay [10] deals with VEGF. The experiment in a line: cell-based or functional assay. The source holds these as a separate data set.
Assay [11] addresses T2, recombinant human VEGF121 (human, UniProt P15692-9 27-147).
T2 construct: also called rhVEGF121; hVEGF121
T2 sequence (looked up): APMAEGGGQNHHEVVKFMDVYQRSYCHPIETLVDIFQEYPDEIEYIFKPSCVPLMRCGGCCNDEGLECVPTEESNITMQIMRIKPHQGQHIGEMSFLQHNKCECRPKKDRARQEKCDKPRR
Description: binding ELISA, coated rhVEGF121. Here is the method:
Binding to recombinant human VEGF121 is assessed via a solid phase binding ELISA. Briefly, recombinant human VEGF121 (R&D Systems, Minneapolis, Minn., USA) is coated overnight at 4° C. at 1 μg/mL in a 96-well MaxiSorp plate (Nunc, Wiesbaden, Germany). Wells are blocked with a casein solution (1% in PBS).

Assay [12] deals with T1, recombinant human VEGF165. The experiment in a line: binding ELISA, coated rhVEGF165.
Target sequence in this assay (P15692 other isoform, or with tags, fused parts or gaps limits assumed): as the sequence (P15692 other isoform, or with tags, fused parts or gaps limits assumed) above
Assay [13] deals with T1, recombinant human VEGF165. The experiment in a line: hVEGF165/hVEGFR2-Fc competition ELISA.
For another assay, the target named is T3, human VEGF-B (human, UniProt P49765-2 22-188, limits assumed).
T3 construct: also called hVEGF-B
T3 sequence (looked up): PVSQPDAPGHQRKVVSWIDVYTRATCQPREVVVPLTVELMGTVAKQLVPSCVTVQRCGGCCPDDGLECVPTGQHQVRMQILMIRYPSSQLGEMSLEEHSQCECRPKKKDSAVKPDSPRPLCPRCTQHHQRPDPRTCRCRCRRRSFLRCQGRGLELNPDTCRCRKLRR
The experiment in a line: binding ELISA on coated VEGFB. Here is the method:
(§4) Binding to VEGFB, VEGFC, VEGFD and PIGF is assessed via a solid phase binding ELISA. In brief, VEGFB, VEGFC, VEGFD and PIGF (R&D Systems, Minneapolis, Minn., USA) are coated overnight at 4° C. at 1 μg/mL in a 96-well MaxiSorp plate (Nunc, Wiesbaden, Germany). Wells are blocked with a casein solution (1% in PBS). […] As positive controls serial dilutions of the appropriate receptors are taken along and detected with horseradish peroxidase (HRP)-conjugated goat anti-human IgG, Fc specific antibody (Jackson Immuno Research Laboratories Inc., West Grove, Pa., USA) and a subsequent enzymatic reaction in the presence of the substrate TMB (3,3′,5,5′-tetramentylbenzidine) (Pierce, Rockford, Ill., USA).

In assay [14] the target is T1, recombinant human VEGF165. Description: hVEGF165/hVEGFR2-Fc competition AlphaScreen. Here is the method:
as §3

In the next assay the target is T4, human VEGF-D (human, UniProt O43915 93-201).
T4 construct: also called hVEGF-D
T4 sequence (looked up): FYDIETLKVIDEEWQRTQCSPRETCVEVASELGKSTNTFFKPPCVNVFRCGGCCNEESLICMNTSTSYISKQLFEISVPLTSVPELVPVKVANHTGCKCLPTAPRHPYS
The experiment in a line: binding ELISA on coated VEGF D. Here is the method:
as §4

The next assay concerns the target T5, human PIGF (human, UniProt P49763-2 21-149, limits assumed).
T5 construct: also called hPIGF; PLGF
T5 sequence (looked up): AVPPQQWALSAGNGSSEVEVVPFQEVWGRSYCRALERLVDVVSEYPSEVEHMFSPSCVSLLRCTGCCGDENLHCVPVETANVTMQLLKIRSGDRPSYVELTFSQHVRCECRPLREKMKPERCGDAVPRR
The experiment in a line: binding ELISA on coated PIGF. How it is done:
as §4

The target of assay [15] is T1, recombinant human VEGF165. The experiment in a line: kd1; SPR Biacore T100, hVEGF165 on chip, Two State Reaction model. Here is the method:
as §1, §2

Assay [16] deals with T1, recombinant human VEGF165. Description: VEGF165/hVEGFR1-Fc competition ELISA.
The target of a further assay is T6, human VEGF-C (human, UniProt P49767 103-227).
T6 construct: also called hVEGF-C
T6 sequence (looked up): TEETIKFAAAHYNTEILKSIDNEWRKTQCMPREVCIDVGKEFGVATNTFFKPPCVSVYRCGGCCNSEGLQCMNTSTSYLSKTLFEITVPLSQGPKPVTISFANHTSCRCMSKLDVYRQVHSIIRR
The experiment in a line: binding ELISA on coated VEGFC. How it is done:
as §4

Assay [17] deals with T7, recombinant mouse VEGF164 (mouse, UniProt Q00731-2 27-190).
T7 construct: biotinylated in the mVEGFR2 AlphaScreen; also called rmVEGF164; mVEGF164
T7 sequence (looked up): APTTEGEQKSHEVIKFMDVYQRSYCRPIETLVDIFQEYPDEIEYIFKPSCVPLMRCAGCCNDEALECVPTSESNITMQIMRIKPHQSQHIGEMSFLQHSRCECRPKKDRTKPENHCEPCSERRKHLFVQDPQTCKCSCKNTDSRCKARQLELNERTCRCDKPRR
Description: binding ELISA on coated mouse VEGF164. Here is the method:
Cross-reactivity to mouse VEGF164 is determined using a binding ELISA. […] Wells are blocked with a casein solution (1% in PBS). […] A mouse VEGF164 reactive mAb is included as positive control.

Assay [18] has as its target T1, recombinant human VEGF165. Description: VEGF/VEGFR1 competition AlphaScreen. How it is done: as §3
The target in a further assay is T8, mAng2.
T8 construct: also called mouse Ang2
T8 chain: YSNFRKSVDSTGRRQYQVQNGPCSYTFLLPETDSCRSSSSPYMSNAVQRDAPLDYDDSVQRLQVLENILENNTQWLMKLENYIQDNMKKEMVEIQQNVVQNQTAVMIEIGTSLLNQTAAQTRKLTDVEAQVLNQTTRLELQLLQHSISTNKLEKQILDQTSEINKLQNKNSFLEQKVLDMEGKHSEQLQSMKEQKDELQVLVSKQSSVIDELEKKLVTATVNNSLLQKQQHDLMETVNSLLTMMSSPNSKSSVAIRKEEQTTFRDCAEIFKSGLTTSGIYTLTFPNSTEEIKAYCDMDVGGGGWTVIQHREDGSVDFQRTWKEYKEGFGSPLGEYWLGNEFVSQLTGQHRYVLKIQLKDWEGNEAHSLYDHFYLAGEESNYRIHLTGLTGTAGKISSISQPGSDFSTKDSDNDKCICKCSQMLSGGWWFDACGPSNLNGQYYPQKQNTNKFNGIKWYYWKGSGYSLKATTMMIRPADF
Description: competition ELISA, blocking of mAng2 binding to mTie2.

The target of another assay is T9, hAng2.
T9 construct: also called human Ang2
T9 chain: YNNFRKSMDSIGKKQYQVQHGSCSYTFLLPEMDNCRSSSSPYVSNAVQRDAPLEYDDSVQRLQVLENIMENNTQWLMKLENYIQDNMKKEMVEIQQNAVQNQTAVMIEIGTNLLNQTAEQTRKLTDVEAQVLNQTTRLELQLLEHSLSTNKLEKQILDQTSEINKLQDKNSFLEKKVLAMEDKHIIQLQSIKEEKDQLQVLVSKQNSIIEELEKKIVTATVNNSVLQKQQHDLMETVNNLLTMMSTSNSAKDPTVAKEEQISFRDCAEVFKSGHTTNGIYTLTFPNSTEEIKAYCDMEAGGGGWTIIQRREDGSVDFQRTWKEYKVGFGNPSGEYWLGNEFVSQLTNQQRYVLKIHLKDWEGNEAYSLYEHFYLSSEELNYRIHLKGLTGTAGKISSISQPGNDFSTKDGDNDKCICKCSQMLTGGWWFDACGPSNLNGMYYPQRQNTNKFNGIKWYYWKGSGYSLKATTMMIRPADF
The experiment in a line: competition ELISA, blocking of hAng2 binding to hTie2.

Where two headings read alike, the source gives them in different places.

B1: VEGFBII037 (VHH)
VHH: DVQLVESGGGLVQPGGSLRLSCAASGRTFSSYSMGWFRQAPGKEREFVVAISKGGYKYDAVSLEGRFTISRDNAKNTVYLQMNSLRPEDTAVYYCASSRAYGSSRLRLADTYEYWGQGTLVTVSS
notes: also called VEGFBII0037
Regarding B1, the Kd in [1] came to 0.27 nM. Also, in [2], the “% inhibition” value is 100% and the IC50 was found to be 0.3 nM. Also, in the assay with VEGF [3], the “% inhibition, VEGF HUVEC proliferation assay” value worked out at 78% and the “IC50 (nM), VEGF HUVEC proliferation assay” value was found to be 1.54 nM.

B2: VEGFBII024 (VHH)
chain: EVQLVESGGGLVQTGDSLRLSCEVSGRTFSSYSMGWFRQAQGKEREFVVAISKGGYKYDSVSLEGRFTISKDNAKNTVYLQINSLKPEDTAVYYCASSRAYGSSRLRLADTYEYWGQGTQVTVSSGGGGSGGGGSGGGGSGGGGSGGGGSGGGGSGGGGSGGGGSEVQLVESGGGLVQAGGSLRLSCTASGSAFKSYRMGWFRRTPGKEDEFVASISWTYGSTFYADSVKGRFTMSRDKAKNAGYLQMNSLKPEDTALYYCAAGAQSDRYNIRSYDYWGQGTQVTVSS
notes: biparatopic bivalent VHH in one chain; also called VEGFBII23B04-40GS-86H09; VEGFBI024
Regarding B2, in assay [4], the ka2 turned out to be 0.026 s⁻¹. Besides, in assay [4], the kd2 was 0.00028 s⁻¹. Further, the Kd in assay [5] was found to be 0.47 nM. Further, the association rate constant (kon) in [6] turned out to be 300000 M⁻¹ s⁻¹. The IC50 was determined as 0.012 nM in assay [7]; 0.069 nM in [8]; 0.292 nM in [13]; 0.05 nM in [14]; 0.326 nM in assay [16]; 0.046 nM in assay [18]. For the same molecule, the “% inhibition” value was determined as 98% in assay [8]; 100% in assay [13]; 100% in assay [14]; 92% in assay [16]; 100% in [18]. In the assay with VEGF [9], the “% inhibition, VEGF HUVEC Erk phosphorylation assay” value was determined as 94%. Also, the “IC50 (nM), VEGF HUVEC Erk phosphorylation assay” value with VEGF [9] was determined as 0.23 nM. For the same molecule, the “% inhibition, VEGF HUVEC proliferation assay” value in the assay with VEGF [10] was found to be 96%. The “IC50 (nM), VEGF HUVEC proliferation assay” value in the assay with VEGF [10] was determined as 0.38 nM. The figures for the EC50 in [11] and in assay [12] were 0.325 nM and 0.32 nM, respectively. In addition, the binding result with human VEGF-B is reported as “no binding (tested: 5e-7 M)”; in the assay with human VEGF-D it was “no binding (tested: 5e-7 M)”; with human PIGF, “no binding (tested: 5e-7 M)”; with human VEGF-C, “no binding (tested: 5e-7 M)”; in assay [17] it was “binds”. The off-rate constant (koff) in assay [15] stood at 0.013 s⁻¹.

B3: ANGBII00002 (VHH)
bivalent VHH: EVQLVESGGGLVQAGGSLRLSCAASGFTFDDYALGWFRQAAGKEREGVSCIRCSDGSTYYADSVKGRFTISSDNAKNTVYLQMNSLKPEDTAVYYCAASIVPRSKLEPYEYDAWGQGTLVTVSSGGGGSGGGGSGGGGSGGGGSGGGGSGGGGSGGGGSGGGGSEVQLVESGGGLVQAGGSLRLSCAASGFTFDDYALGWFRQAAGKEREGVSCIRCSDGSTYYADSVKGRFTISSDNAKNTVYLQMNSLKPEDTAVYYCAASIVPRSKLEPYEYDAWGQGTLVTVSS
notes: homodimeric anti-Ang2 VHH; also called 1D01-40gs-1D01
As for B3, the results for the “IC50 (read off the curve)” value with mAng2 and with hAng2 were around 0.03 nM and around 0.02 nM, respectively.
